These results are taken from FireProtDB (doi:10.1110/ps.38602).

One may read the Tm as the temperature at the midpoint of the melting transition.

The conditions of this data set: pH 5.5, CD, NaOAc 20 mM, KCl 50 mM, reversible: yes, whole UniProt chain shown; for denaturant m value / unfolding free energy: 25 °C; for Tm / heat capacity change of unfolding: Thermal.
Where [1] appears, read: Thermus thermophilus (strain ATCC 27634 / DSM 579 / HB8), GdnHCl.
[2] abbreviates: Thermus thermophilus (strain ATCC 27634 / DSM 579 / HB8).
The mark [3] stands for this setting: Escherichia coli (strain K12), GdnHCl.
The mark [4] stands for this setting: Escherichia coli (strain K12), Urea.

B1: Ribonuclease H wild type, P29253 (protein)
chain: MNPSPRKRVALFTDGACLGNPGPGGWAALLRFHAHEKLLSGGEACTTNNRMELKAAIEGLKALKEPCEVDLYTDSHYLKKAFTEGWLEGWRKRGWRTAEGKPVKNRDLWEALLLAMAPHRVRFHFVKGHTGHPENERVDREARRQAQSQAKTPCPPRAPTLFHEEA
For the protein B1, under setting [1], the denaturant m value worked out at 4.4 kcal/mol/M and the unfolding free energy was determined as 12.2 kcal/mol. Under setting [2], the Tm was found to be 86 °C and the “heat capacity change of unfolding” value came to 1.8 kcal/mol/K.

B2: Ribonuclease HI wild type, P0A7Y4 (protein)
chain: MLKQVEIFTDGSCLGNPGPGGYGAILRYRGREKTFSAGYTRTTNNRMELMAAIVALEALKEHCEVILSTDSQYVRQGITQWIHNWKKRGWKTADKKPVKNVDLWQRLDAALGQHQIKWEWVKGHAGHPENERCDELARAAAMNPTLEDTGYQVEV
On to B2, for which, under setting [3], the denaturant m value is 4.9 kcal/mol/M and the unfolding free energy came out at 7.6 kcal/mol. Besides, under setting [4], the denaturant m value is 2.1 kcal/mol/M and the unfolding free energy came to 9.7 kcal/mol. Moreover, for the setting “Escherichia coli (strain K12)”, the Tm came out at 66 °C and the “heat capacity change of unfolding” value was determined as 2.7 kcal/mol/K.
